Our source for the Kd and TRAIL-induced killing of NT193M cells values is patent publication EP3912994A1.

Assay [1] addresses fibronectin type III domains 1-5 of human tenascin-C (human) (UniProt P24821). Nature of the assay: ELISA, TN1-5 coated, biotinylated FN12-14 titrated 1 nM to 1 µM.
The target in assay [2] is Tenascin-C (TNC), recombinant full length. Nature of the assay: SPR (Biacore 2000), TNC immobilised on CM5 chip, 1:1 Langmuir model.
Assay [3] addresses Tenascin-C (TNC) expressed by the NT193M tumor cell (mouse) (UniProt Q80YX1). Nature of the assay: cell-based or functional assay.

Tenascin-C (TNC) expressed by the NT193M tumor cell (mouse), sequence (Q80YX1 23-2110 limits assumed): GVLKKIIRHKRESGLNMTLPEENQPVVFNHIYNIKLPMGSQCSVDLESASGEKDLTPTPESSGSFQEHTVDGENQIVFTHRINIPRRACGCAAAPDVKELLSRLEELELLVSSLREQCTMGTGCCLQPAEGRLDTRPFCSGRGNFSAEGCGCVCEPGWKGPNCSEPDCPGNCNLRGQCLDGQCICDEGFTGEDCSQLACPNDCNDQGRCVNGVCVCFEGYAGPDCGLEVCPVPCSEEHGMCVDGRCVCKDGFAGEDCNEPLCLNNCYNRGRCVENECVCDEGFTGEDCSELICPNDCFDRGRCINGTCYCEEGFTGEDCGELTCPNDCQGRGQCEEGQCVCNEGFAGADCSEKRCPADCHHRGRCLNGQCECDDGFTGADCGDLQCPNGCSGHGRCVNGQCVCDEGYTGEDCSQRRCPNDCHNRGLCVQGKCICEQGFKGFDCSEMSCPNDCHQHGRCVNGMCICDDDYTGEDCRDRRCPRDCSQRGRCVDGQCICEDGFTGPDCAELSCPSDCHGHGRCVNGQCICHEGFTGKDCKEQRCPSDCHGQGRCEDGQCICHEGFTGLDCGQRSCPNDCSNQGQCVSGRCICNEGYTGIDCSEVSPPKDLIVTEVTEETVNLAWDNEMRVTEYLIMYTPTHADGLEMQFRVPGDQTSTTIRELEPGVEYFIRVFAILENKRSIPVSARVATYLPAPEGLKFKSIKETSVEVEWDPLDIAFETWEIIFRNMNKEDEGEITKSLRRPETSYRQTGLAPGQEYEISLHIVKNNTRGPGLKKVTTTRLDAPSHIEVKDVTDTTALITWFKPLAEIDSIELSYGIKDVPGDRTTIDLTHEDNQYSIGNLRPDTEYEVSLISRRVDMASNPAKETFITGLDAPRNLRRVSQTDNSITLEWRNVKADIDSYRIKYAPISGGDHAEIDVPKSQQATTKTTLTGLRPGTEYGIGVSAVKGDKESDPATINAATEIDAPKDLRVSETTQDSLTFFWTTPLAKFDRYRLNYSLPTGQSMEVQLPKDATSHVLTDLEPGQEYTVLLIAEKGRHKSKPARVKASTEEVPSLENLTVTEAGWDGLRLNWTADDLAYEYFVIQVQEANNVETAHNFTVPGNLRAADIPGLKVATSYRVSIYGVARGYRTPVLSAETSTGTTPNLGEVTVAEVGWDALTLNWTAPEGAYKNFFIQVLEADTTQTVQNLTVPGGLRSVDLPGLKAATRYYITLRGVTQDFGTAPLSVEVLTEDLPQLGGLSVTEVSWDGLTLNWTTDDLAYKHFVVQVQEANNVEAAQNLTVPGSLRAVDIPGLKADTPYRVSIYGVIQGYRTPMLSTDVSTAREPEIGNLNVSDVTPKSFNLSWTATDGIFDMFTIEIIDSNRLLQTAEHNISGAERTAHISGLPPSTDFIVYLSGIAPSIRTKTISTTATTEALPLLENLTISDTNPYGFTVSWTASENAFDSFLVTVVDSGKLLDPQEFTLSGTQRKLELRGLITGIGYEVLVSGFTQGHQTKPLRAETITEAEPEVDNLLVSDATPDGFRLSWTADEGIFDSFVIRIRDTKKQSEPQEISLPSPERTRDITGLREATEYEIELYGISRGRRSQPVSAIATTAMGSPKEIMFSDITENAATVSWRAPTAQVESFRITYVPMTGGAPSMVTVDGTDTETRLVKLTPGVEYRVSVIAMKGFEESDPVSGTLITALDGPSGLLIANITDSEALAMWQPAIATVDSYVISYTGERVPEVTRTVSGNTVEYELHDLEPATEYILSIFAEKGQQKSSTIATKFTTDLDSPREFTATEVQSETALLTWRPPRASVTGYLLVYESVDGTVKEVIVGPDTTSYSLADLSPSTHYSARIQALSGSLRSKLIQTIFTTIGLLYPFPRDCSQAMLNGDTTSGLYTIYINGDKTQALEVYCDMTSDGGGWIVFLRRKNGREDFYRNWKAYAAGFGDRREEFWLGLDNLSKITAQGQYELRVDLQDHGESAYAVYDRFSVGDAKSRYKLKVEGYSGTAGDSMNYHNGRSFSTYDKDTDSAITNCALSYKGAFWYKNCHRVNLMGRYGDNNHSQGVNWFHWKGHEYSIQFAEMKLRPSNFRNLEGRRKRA
fibronectin type III domains 1-5 of human tenascin-C (human), sequence (P24821 625-1075, form in doubt): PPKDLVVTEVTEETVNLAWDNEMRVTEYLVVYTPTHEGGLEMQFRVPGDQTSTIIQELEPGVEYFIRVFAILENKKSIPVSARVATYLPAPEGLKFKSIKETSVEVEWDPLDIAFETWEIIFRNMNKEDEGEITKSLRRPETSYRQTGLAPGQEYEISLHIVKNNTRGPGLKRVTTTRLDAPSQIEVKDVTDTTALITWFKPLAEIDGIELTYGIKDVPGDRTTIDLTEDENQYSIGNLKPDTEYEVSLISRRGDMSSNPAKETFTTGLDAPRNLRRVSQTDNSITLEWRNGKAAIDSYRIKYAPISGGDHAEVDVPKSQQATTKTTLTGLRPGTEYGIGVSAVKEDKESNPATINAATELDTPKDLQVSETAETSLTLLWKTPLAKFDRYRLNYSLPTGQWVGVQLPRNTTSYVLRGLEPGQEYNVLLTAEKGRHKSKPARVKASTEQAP

“fibronectin type III domains 12-14 of human fibronectin (double Strep-tagged) (from UniProt P02751 1635-1908)” displayed a Kd in assay [1] of 0.052 µM. “CXCL12 (R&D Systems 460-SD-050) (from UniProt P40224 22-89) (ligand)”: in assay [2], the Kd was determined as 0.79 µM. Turning to “CCL21 (R&D Systems 457-6C) (from UniProt P84444 24-133) (ligand)”, the Kd in assay [2] is 0.058 µM. In assay [3], “Mouse recombinant SU… (Enzo Lifesciences ALX-201-130-C020) (from UniProt P50592 99-291) (ligand)” registered a TRAIL-induced killing of NT193M cells of 5%. For the same substance, the Kd in assay [2] was determined as 0.0028 µM.
